The target in this assay is Akt WT (transfected) (UniProt P31749). Briefly: co-immunoprecipitation (K8/K18 IP, Akt immunoblot, quantified). The note with it: BHK-21 cells transfected with Akt WT, parent: est. 1.0, read off a plot. On the technique in general: Immunoblotting shows a protein as a band on a membrane.

7 substances from paper PMC8430995 can be followed below.

Chain of Akt WT (transfected) (P31749 whole entry): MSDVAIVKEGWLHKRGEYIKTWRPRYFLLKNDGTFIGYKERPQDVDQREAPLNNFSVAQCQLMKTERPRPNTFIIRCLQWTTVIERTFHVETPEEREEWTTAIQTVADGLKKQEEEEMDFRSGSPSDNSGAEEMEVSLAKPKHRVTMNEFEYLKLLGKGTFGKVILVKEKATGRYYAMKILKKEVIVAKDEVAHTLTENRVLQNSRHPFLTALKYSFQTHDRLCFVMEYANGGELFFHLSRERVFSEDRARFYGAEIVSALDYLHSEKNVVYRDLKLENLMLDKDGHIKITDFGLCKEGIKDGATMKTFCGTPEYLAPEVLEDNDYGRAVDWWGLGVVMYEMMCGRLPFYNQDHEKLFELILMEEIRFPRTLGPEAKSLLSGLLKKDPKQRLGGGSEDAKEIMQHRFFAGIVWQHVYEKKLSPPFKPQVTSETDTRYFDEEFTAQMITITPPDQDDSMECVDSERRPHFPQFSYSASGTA
Chain of K8 WT/K18 WT (transfected) (from UniProt P05787;P05783) K18:Q284R (P05787 whole entry, stated change not applied): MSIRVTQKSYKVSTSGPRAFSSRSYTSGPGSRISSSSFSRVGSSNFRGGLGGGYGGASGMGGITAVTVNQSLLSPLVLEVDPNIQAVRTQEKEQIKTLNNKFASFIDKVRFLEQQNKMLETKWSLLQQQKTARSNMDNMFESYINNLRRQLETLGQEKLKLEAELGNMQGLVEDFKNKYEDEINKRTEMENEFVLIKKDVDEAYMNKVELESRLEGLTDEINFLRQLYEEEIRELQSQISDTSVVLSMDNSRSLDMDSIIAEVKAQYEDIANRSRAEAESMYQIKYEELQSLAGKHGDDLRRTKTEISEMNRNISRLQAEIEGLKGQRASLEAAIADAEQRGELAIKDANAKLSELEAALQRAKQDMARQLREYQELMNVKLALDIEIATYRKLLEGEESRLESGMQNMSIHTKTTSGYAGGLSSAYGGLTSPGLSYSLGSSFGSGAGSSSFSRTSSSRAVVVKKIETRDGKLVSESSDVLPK
Chain of K8 WT/K18 WT (transfected) (from UniProt P05787;P05783) K18:Q284R (P05783 whole entry, stated change not applied): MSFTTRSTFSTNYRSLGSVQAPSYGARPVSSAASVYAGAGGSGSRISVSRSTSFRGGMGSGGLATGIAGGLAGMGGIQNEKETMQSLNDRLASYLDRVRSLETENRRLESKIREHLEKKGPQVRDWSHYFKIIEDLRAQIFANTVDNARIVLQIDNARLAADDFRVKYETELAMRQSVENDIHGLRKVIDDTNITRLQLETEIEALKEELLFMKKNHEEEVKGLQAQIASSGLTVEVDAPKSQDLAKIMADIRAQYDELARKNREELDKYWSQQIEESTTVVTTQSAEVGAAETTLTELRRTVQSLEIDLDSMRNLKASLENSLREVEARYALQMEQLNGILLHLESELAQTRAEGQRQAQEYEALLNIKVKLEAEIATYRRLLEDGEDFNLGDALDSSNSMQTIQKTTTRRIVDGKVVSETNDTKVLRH
Chain of K8 WT/K18 WT (transfected) (from UniProt P05787;P05783) K8:R341H (P05787 whole entry, stated change not applied): as the sequence (P05787 whole entry, stated change not applied) above
Chain of K8 WT/K18 WT (transfected) (from UniProt P05787;P05783) K8:R341H (P05783 whole entry, stated change not applied): as the sequence (P05783 whole entry, stated change not applied) above
Chain of K8 WT/K18 WT (transfected) (from UniProt P05787;P05783) K18:I149V (P05787 whole entry, stated change not applied): as the sequence (P05787 whole entry, stated change not applied) above
Chain of K8 WT/K18 WT (transfected) (from UniProt P05787;P05783) K18:I149V (P05783 whole entry, stated change not applied): as the sequence (P05783 whole entry, stated change not applied) above
Chain of K8 WT/K18 WT (transfected) (from UniProt P05787;P05783) K8:R454C (P05787 whole entry, stated change not applied): as the sequence (P05787 whole entry, stated change not applied) above
Chain of K8 WT/K18 WT (transfected) (from UniProt P05787;P05783) K8:R454C (P05783 whole entry, stated change not applied): as the sequence (P05783 whole entry, stated change not applied) above
Chain of K8 WT/K18 WT (transfected) (from UniProt P05787;P05783) K8:A319S (P05787 whole entry, stated change not applied): as the sequence (P05787 whole entry, stated change not applied) above
Chain of K8 WT/K18 WT (transfected) (from UniProt P05787;P05783) K8:A319S (P05783 whole entry, stated change not applied): as the sequence (P05783 whole entry, stated change not applied) above
Chain of K8 WT/K18 WT (transfected) (from UniProt P05787;P05783) K8:Y54H (P05787 whole entry, stated change not applied): as the sequence (P05787 whole entry, stated change not applied) above
Chain of K8 WT/K18 WT (transfected) (from UniProt P05787;P05783) K8:Y54H (P05783 whole entry, stated change not applied): as the sequence (P05783 whole entry, stated change not applied) above
Chain of K8 WT/K18 WT (transfected) (from UniProt P05787;P05783) K18:T294M (P05787 whole entry, stated change not applied): as the sequence (P05787 whole entry, stated change not applied) above
Chain of K8 WT/K18 WT (transfected) (from UniProt P05787;P05783) K18:T294M (P05783 whole entry, stated change not applied): as the sequence (P05783 whole entry, stated change not applied) above

With “K8 WT/K18 WT (transfected) (from UniProt P05787;P05783) K8:R341H”, where the note is “K18 WT and the K8 mutant”, the ratio to parent amounted to 0.92.

With “K8 WT/K18 WT (transfected) (from UniProt P05787;P05783) K18:T294M”, where the note is “K8 WT and the K18 mutant”, the ratio to parent came to 1.6.

“K8 WT/K18 WT (transfected) (from UniProt P05787;P05783) K8:A319S”: the ratio to parent (K18 WT and the K8 mutant) is 0.93.

Take “K8 WT/K18 WT (transfected) (from UniProt P05787;P05783) K18:Q284R”: the ratio to parent (K8 WT and the K18 mutant) worked out at 1.3.

“K8 WT/K18 WT (transfected) (from UniProt P05787;P05783) K8:Y54H”: where the note is “K18 WT and the K8 mutant”, the ratio to parent is 1.1.

With “K8 WT/K18 WT (transfected) (from UniProt P05787;P05783) K8:R454C”, where the note is “K18 WT and the K8 mutant”, the ratio to parent amounted to 1.1.

For the substance “K8 WT/K18 WT (transfected) (from UniProt P05787;P05783) K18:I149V”, the ratio to parent (K8 WT and the K18 mutant) is 1.1.
